Sequences and labels used below:
B3: BMP10 (ligand, UniProt O95393 317-424, looked up)
chain: NAKGNYCKRTPLYIDFKEIGWDSWIIAPPGYEAYECRGVCNYPLAEHLTPTKHAIIQALVHLKNSQKASKACCVPTKLEPISILYLDKGVVTYKFKYEGMAVSECGCR

Read-outs that look alike come from different tables or passages of the source.

The target in assay [1] is T1, activin A (UniProt P08476 311-426).
T1 construct: The same holds for m2-m11
T1 sequence (looked up): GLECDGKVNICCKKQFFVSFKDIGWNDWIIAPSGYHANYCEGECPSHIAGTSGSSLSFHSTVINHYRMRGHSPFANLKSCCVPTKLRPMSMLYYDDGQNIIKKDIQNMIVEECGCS
The assay is described as follows: SPR (Biacore), anti-Fc capture of receptor. As for the experimental part:
(§1) A Biacore™-based binding assay was used to compare ligand binding selectivity of the ActRIIB-Fc:ALK7-Fc heterodimeric complex described above with that of ActRIIB-Fc and ALK7-Fc homodimeric complexes. The ActRIIB-Fc:ALK7-Fc heterodimer, ActRIIB-Fc homodimer, and ALK7-Fc homodimer were independently captured onto the system using an anti-Fc antibody. Ligands were injected and allowed to flow over the captured receptor protein. Results are summarized in the table below, in which ligand off-rates (kd) most indicative of effective ligand traps are denoted by in bold.
For orientation: Surface plasmon resonance follows binding to a sensor surface in real time, without labels.

The target in the next assay is T2, BMP9 (UniProt Q9UK05 320-429).
T2 construct: also called GDF2
T2 sequence (looked up): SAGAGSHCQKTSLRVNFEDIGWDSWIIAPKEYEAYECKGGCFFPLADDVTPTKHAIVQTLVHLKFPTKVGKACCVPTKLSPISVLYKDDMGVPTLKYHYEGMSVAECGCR
The assay can be described thus: SPR (Biacore), anti-Fc capture of receptor. As to the method: as §1

The assay “BMP10” concerns the target B3. The assay can be described thus: SPR (Biacore), anti-Fc capture of receptor. As to the method: as §1
Assay [2] concerns the target T3, activin B (UniProt P09529 293-407).
T3 sequence (looked up): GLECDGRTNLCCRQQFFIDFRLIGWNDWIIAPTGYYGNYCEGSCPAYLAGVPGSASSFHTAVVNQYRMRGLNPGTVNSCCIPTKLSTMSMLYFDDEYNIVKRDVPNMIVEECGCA
The assay can be described thus: SPR (Biacore), anti-Fc capture of receptor. As for the experimental part: as §1

In the next assay the target is T4, activin C (UniProt P55103 237-352).
T4 sequence (looked up): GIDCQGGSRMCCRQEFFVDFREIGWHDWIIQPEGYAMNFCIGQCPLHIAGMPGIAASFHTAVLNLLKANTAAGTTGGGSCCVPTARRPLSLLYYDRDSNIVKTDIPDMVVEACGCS
The assay is described as follows: SPR (Biacore), anti-Fc capture of receptor. As to the method: as §1

In another assay the target is T5, activin AC (UniProt P08476 311-426; P55103 237-352).
T5 sequence (looked up) 1: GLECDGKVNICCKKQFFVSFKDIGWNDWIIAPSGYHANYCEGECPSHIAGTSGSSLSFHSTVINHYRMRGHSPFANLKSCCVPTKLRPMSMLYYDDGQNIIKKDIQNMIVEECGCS
T5 sequence (looked up) 2: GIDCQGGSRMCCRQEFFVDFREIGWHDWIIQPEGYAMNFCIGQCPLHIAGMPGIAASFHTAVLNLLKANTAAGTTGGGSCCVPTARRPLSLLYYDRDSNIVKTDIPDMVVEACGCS
The assay is described as follows: SPR (Biacore), anti-Fc capture of receptor. As to the method:
as §1

The target of the next assay is T6, GDF3 (UniProt Q9NR23 251-364).
T6 sequence (looked up): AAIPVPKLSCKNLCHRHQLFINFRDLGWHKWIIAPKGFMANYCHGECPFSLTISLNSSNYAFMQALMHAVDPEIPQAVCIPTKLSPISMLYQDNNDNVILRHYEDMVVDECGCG
The assay can be described thus: SPR (Biacore), anti-Fc capture of receptor. As for the experimental part: as §1

In another assay the target is T7, GDF8 (UniProt O14793 267-375).
T7 construct: also called myostatin
T7 sequence (looked up): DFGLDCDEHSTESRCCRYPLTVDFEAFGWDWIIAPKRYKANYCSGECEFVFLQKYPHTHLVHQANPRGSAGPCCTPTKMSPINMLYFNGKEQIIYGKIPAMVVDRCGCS
The assay is described as follows: SPR (Biacore), anti-Fc capture of receptor. As for the experimental part:
as §1

For the next assay, the target named is T8, GDF11 (UniProt O95390 299-407).
T8 construct: also called BMP11
T8 sequence (looked up): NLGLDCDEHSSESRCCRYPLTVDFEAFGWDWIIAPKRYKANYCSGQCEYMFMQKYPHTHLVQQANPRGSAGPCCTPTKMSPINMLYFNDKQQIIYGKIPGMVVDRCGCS
The assay is described as follows: SPR (Biacore), anti-Fc capture of receptor. As to the method:
as §1

The next assay has as its target T9, BMP5 (UniProt P22003 317-454, limits assumed).
T9 sequence (looked up): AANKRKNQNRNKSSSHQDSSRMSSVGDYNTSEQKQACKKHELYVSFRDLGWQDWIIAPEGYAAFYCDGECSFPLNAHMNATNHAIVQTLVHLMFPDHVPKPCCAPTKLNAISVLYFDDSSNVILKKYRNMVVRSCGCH
The assay is described as follows: SPR (Biacore), anti-Fc capture of receptor. As to the method:
as §1

In the next assay the target is T10, BMP6 (UniProt P22004 382-513, limits assumed).
T10 sequence (looked up): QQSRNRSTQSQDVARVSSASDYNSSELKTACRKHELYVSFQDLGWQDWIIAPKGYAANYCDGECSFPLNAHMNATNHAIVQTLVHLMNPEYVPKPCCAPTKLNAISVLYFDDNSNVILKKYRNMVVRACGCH
The assay can be described thus: SPR (Biacore), anti-Fc capture of receptor. As for the experimental part:
as §1

Assay [3] addresses T1, activin A. The assay is described as follows: SPR (Biacore), anti-Fc capture of receptor. As to the method:
(§2) A Biacore™-based binding assay was used to compare ligand binding selectivity of the ActRIIB-Fc:ALK4-Fc heterodimeric complex described above with that of ActRIIB-Fc and ALK4-Fc homodimer complexes. The ActRIIB-Fc:ALK4-Fc heterodimer, ActRIIB-Fc homodimer, and ALK4-Fc homodimer were independently captured onto the system using an anti-Fc antibody. Ligands were injected and allowed to flow over the captured receptor protein. Results are summarized in the table below, in which ligand off-rates (kd) most indicative of effective ligand traps are denoted in bold.
This is another data set of the same source.

In assay [4] the target is T3, activin B. The assay is described as follows: SPR (Biacore), anti-Fc capture of receptor. As to the method: as §2
The source holds these as a separate data set.

In the next assay the target is T11, ActRIIA-mFc (human, UniProt P27037 21-135).
T11 construct: not shown: minimal linker and mouse Fc domain
The assay is described as follows: similar binding assay (SPR). As to the method: GDF11 or activin A were immobilized on a Biacore™ CM5 chip using standard amine-coupling procedure. ActRIIA-hFc and ActRIIA-mFc proteins were loaded onto the system, and binding was measured. […] See FIG. 15A-B. Using a similar binding assay, ActRIIA-hFc was determined to have high to moderate affinity for other TGF-beta superfamily ligands including, for example, activin B, GDF8, BMP6, and BMP10. ActRIIA-mFc behaved similarly.

T11 sequence (P27037 21-135): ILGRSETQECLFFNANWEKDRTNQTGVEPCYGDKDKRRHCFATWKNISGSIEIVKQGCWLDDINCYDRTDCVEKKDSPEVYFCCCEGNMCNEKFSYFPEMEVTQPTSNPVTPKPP

B1: ALK7-Fc homodimer (Fc fusion, not shown: a dimerising Fc or GST)
chain: LSPGLKCVCLLCDSSNFTCQTEGACWASVMLTNGKEQVIKSCVSLPELNAQVFCHSSNNVTKTECCFTDFCNNITLHLPTASPNAPKLGPME
notes: the whole extracellular entry is named
Regarding B1, the binding result with activin A [1], with BMP9, with BMP10, with activin B [2], with activin C and in the assay with activin AC was “no binding” each time. The binding result with GDF3, in the assay with GDF8, in the assay with GDF11, in the assay with BMP5 and with BMP6 was “no binding” each time.

B2: ALK4-Fc homodimer (Fc fusion, not shown: a dimerising Fc or GST)
chain: SGPRGVQALLCACTSCLQANYTCETDGACMVSIFNLDGMEHHVRTCIPKVELVPAGKPFYCLSSEDLRNTHCCYTDYCNRIDLRVPSGHLKEPEHPSMWGPVE
By Kd is commonly meant a measure of binding affinity in units of concentration. The low end stands for higher affinity, the high end for lower affinity. The koff is the first-order rate constant of dissociation. Read a low koff as a long-lived complex. A word on the kon: it is the second-order rate constant of association. In the assay with activin A [3], B2 yielded a Kd of 20 nM, a dissociation rate constant (koff) of 0.012 s⁻¹ and an on-rate constant (kon) of 580000 M⁻¹ s⁻¹. The binding result in the assay with activin B [4] is “no binding”.
Regarding B3, in the assay with ActRIIA-mFc, the binding result was “binds”.

B4: ActRIIB-Fc:ALK7-Fc heterodimer (Fc fusion)
chain 1: GRGEAETRECIYYNANWELERTNQSGLERCEGEQDKRLHCYASWRNSSGTIELVKKGCWLDDFNCYDRQECVATEENPQVYFCCCEGNFCNERFTHLPEAGGPEVTYEPPPTAPTGGGTHTCPPCPAPELLGGPSVFLFPPKPKDTLMISRTPEVTCVVVDVSHEDPEVKFNWYVDGVEVHNAKTKPREEQYNSTYRVVSVLTVLHQDWLNGKEYKCKVSNKALPAPIEKTISKAKGQPREPQVYTLPPSRKEMTKNQVSLTCLVKGFYPSDIAVEWESNGQPENNYKTTPPVLKSDGSFFLYSKLTVDKSRWQQGNVFSCSVMHEALHNHYTQKSLSLSPGK
chain 2: GLKCVCLLCDSSNFTCQTEGACWASVMLTNGKEQVIKSCVSLPELNAQVFCHSSNNVTKTECCFTDFCNNITLHLPTASPNAPKLGPMETGGGTHTCPPCPAPELLGGPSVFLFPPKPKDTLMISRTPEVTCVVVDVSHEDPEVKFNWYVDGVEVHNAKTKPREEQYNSTYRVVSVLTVLHQDWLNGKEYKCKVSNKALPAPIEKTISKAKGQPREPQVYTLPPSREEMTKNQVSLTCLVKGFYPSDIAVEWESNGQPENNYDTTPPVLDSDGSFFLYSDLTVDKSRWQQGNVFSCSVMHEALHNHYTQKSLSLSPG
notes: also called ActRIIB-Fc:ALK7 heterodimer; ActRIIB-Fc:ALK7-Fc heterodimeric complex
Regarding B4, the equilibrium dissociation constant (Kd) in the assay with activin A [1] is 0.043 nM; with BMP9, greater than 1.4 nM; in the assay with BMP10, 0.19 nM; with activin B [2], 0.017 nM; with activin C it was 6.9 nM; with activin AC, 0.22 nM. The Kd with GDF3 was 4.5 nM; with GDF8, 0.27 nM; with GDF11, 0.008 nM; with BMP5 it was 57 nM; with BMP6 it was 5.3 nM. In addition, the dissociation rate constant (koff) in the assay with activin A [1] is 0.0019 s⁻¹; with BMP10 it was 0.0028 s⁻¹; with activin B [2], 0.0002 s⁻¹; in the assay with activin C, 0.0024 s⁻¹; with activin AC it was 0.00057 s⁻¹; with GDF3 it was 0.01 s⁻¹. The off-rate (koff) with GDF8 worked out at 0.001 s⁻¹; in the assay with GDF11, 0.00075 s⁻¹; in the assay with BMP5, 0.0085 s⁻¹; with BMP6 it was 0.0063 s⁻¹. Besides, the kon in the assay with activin A [1] turned out to be 4.4e+07 M⁻¹ s⁻¹; with BMP10, 1.5e+07 M⁻¹ s⁻¹; with activin B [2], 1.2e+07 M⁻¹ s⁻¹; in the assay with activin C, 350000 M⁻¹ s⁻¹; with activin AC it was 2.6e+06 M⁻¹ s⁻¹; with GDF3, 2.3e+06 M⁻¹ s⁻¹. In addition, the kon amounted to 3.7e+06 M⁻¹ s⁻¹ in the assay with GDF8, 9.5e+07 M⁻¹ s⁻¹ with GDF11, 150000 M⁻¹ s⁻¹ with BMP5 and 1.2e+06 M⁻¹ s⁻¹ with BMP6.

The values are drawn from patent publication US20240252628A1 (ACCELERON PHARMA, published 2024).
